Legend:
PMEL17 = biological target: T1, PMEL17 (Homo sapiens, UniProt P40967); assay: Immunohistochemistry of human melanoma tissue specimens; design: The expression of PMEL17 was evaluated across a panel of human melanoma tissue specimines by immunohistochemistry; from tissue; host or cells: 58 human melanoma specimens (30 primary, 28 metastatic); conditions: 58 specimens (30 primary, 28 metastatic)
T1 sequence (P40967 25-661): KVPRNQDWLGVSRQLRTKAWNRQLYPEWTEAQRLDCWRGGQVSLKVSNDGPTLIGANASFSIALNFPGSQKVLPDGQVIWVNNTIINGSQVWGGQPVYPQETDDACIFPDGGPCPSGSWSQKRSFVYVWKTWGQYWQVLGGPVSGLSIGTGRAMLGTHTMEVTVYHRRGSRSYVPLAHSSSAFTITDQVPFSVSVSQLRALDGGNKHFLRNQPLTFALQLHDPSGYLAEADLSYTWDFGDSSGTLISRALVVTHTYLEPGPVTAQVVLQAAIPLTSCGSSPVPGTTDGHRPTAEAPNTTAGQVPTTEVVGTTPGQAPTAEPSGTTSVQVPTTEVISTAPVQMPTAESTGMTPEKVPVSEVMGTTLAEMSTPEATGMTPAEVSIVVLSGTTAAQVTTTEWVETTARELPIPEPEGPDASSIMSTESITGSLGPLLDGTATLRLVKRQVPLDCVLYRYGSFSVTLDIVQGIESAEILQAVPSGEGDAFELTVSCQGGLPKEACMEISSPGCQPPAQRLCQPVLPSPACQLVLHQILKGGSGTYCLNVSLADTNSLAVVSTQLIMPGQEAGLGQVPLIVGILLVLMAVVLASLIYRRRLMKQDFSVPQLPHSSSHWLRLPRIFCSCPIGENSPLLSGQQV
Procedure: To assess the potential liability of targeting PMEL17 on normal melanocytes, the level of expression of this target in normal human skin was evaluated by immunohistochemistry. Immunohistochemistry (IHC) was performed on 4 μm thick formalin-fixed paraffin embedded tissue sections mounted on glass slides. All IHC steps were carried out on the Ventana Discovery XT (Ventana Medical Systems; Tucson, Ariz.) autostainer. Pretreatment was done with Cell Conditioner 1, standard time. Primary antibody, PMEL17 clone 31D1 was used at a concentration of 10 μg/ml and was incubated on slides for 1 hour at 37° C. Ventana Mouse OmniMap (Ventana Medical Systems; AZ) was used as the detection system. […]
The expression of PMEL17 was evaluated across a panel of human melanoma tissue specimines by immunohistochemistry substantially as described above, using both 17A9 and 31D1. Staining was scored on an arbitrary scale ranging from zero, for absent, to 3+ for most intense: • 0 (negative): very weak or no staining in >90% of melanoma cells • 1+(mild): predominant staining pattern is weak • 2+(moderate): predominant staining pattern is moderately strong in the majority (>50%) of melanoma cells • 3+(strong): predominant staining pattern is strong in the majority (>50%) of melanoma cells Exemplary staining for each of the levels of the scale is shown in FIG. 7A, left panels.

928mel cells = assay: Live cell staining and FACS with directly labeled antibodies; format: cell-based
From the text: The predominance of the N-terminal epitope at the cell surface relative to the cytoplasmic epitope is consistent with stronger FACS signals observed with 17A9 over 77E6. Nevertheless, it appears that some portion of the cytoplasmic region is present at the cell surface to account for the FACS signals observed with 77E6. To address this, live cells were reacted with the 77E6 and 17A9 antibodies that were directly labeled with Alexa Fluors 555 and 488, respectively. […] The binding of the individual antibodies was unaffected by the presence of the other antibody. […] Further, although 17A9 stained all cells uniformly and consistently, 77E6 staining was variable from cell to cell and the overall degree of staining varied across preparations. […] Overall, the uniform and intense reactivity of 17A9 on melanoma cells makes this antibody a good candidate for drug conjugation.

normal human melanocytes [1] = assay: Flow cytometry of normal human melanocytes and SK-MEL-5 cells; format: binding; conditions: intensity comparable to SK-MEL-5
From the text: Normal human melanocytes and SK-MEL-5 melanoma cells were reacted with chimeric 17A9, or no primary antibody, followed by Alexa 488-labeled anti-human IgG and analyzed by flow cytometry.

normal human melanocytes [2] = assay: Toxicity of anti-PMEL17 ADC in normal melanocytes (CellTiter-GloII, five days); format: cell-based; conditions: versus SK-MEL-5 and SK-MEL-23, five days
Procedure: Finally, SK-MEL-5 and SK-MEL-23 melanoma cells, or normal human melanocytes, were incubated with serial dilutions of the 17A9 ADC and five days later cell numbers were determined using CellTiter-GloII.

human PMEL17 [3] = biological target: T2, human PMEL17 (Homo sapiens, UniProt P40967); assay: FACS screening of anti-PMEL17 hybridoma antibodies on live cells; format: binding; conditions: live melanoma cells, normal human melanocytes, PC3 cell line stably expressing PMEL17 cDNA
T2 construct: endogenous in cells; host or cells: SK-MEL-23, 1300mel, SKMEL5 (ATCC HTB-70), UACC257, normal melanocytes (Invitrogen); also PC3 stably expressing human PMEL17
T2 sequence (P40967 25-469): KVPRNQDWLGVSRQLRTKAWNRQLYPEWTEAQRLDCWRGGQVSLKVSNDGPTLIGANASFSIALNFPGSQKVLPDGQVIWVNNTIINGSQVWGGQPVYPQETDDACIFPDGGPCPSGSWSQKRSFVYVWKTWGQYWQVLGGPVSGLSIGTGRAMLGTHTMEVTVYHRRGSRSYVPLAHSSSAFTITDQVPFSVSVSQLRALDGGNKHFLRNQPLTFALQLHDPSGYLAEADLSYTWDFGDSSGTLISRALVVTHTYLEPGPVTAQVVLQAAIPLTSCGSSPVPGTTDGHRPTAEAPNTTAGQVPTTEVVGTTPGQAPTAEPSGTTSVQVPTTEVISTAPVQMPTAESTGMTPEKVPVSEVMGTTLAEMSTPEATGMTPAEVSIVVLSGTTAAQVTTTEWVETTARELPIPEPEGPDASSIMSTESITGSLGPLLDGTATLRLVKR
T2 sequence (P40967 470-661): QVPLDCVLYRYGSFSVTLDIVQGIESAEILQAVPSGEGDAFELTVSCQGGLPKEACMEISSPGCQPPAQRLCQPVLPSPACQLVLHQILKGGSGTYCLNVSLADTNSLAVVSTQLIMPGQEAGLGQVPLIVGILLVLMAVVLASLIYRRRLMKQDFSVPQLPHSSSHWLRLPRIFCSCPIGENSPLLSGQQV

human PMEL17 [4] = assay: as above; format: binding; conditions: parental PC3 cell line

B1: 17A9 (antibody, listed as Mus musculus, V domains shown)
VH: EVQLQQSGPELVKPGASMKISCKSSGYSFTRYTMNWVKQSHGKNLEWIGVINPYNGGTVYNQKFKGKATLTVDKSSSTAYMELLSLTSEDSAVYYCARTDYDGYAMDYWGQGTSVTVSS
VL: DVQITQSPSYLAASPGETITINCRATKSISKYLAWYQEQPGKTNNLLIYSGSTLQSGIPSRFSGSGSGTDFTLTISSLEPEDFAMYYCQQHNEYPYTFGSGTKLEIK
human melanoma specimens PMEL17+ when detected with the antibody (PMEL17): 64% | binding in the presence of the other labeled antibody (competition) (928mel cells; 77E6 and 17A9 alone or both together, FACS): unaffected | cell surface staining of live-labeled cells (928mel cells; Alexa Fluor labeled antibodies): uniform cell surface staining | FACS staining of cultured normal human melanocytes (normal human melanocytes [1]): FACS+ | IC50 on normal melanocytes relative to melanoma cell lines (normal human melanocytes [2]): ~100 fold | FACS reactivity with live cells expressing PMEL17 (human PMEL17 [3]): reacted strongly | FACS reactivity with parental PC3 cell line (human PMEL17 [4]): not the parental PC3 cell line
